Binding signal data for four substances are collected here from publication PMC4716839.

Series [1] relates to Dna2 D278A (nuclease-dead) (Mus musculus). Kind of series: EMSA. The following applies: Kd only in figure; EMSA: 20 mM Tris-HCl pH 8.0, 80 mM NaCl, 0.3 mM TCEP, 0.2 mg/mL BSA, 2% glycerol, on ice 30 min, 0.075 or 0.3 nM 32P-DNA; 4% native PAGE, 1x TB, 4 C; scale: affinity relative to 5'(dT)24. Background: In EMSA bound probe runs differently from free probe, usually more slowly.

Series [2] has the same test system. Kind of series: bead pull-down. The following applies: DNA preloaded with Rpa, EMSA: 20 mM Tris-HCl pH 8.0, 80 mM NaCl, 0.3 mM TCEP, 0.2 mg/mL BSA, 2% glycerol, on ice 30 min, 0.075 or 0.3 nM 32P-DNA, 4% native PAGE, 1x TB, 4 C, scale: % Dna2 loading relative to reaction lacking Rpa.

5'(dT)8 overhang DNA gave a binding signal in series [1] of 0.01.

5'-(dT)26 overhang DNA, biotinylated showed a binding signal in series [2] of 45.

In series [2] (negligible loading), 3'-(dT)26 overhang DNA, biotinylated yielded a binding signal of 3.

In series [1], 5'(dT)6 overhang DNA had a binding signal of 0.01.
